# In paper PMC3185043:
# Columns and labels:
# Assay in all cases: pull-down SILAC MS
# [1] = system: MeCP2 (U937 nuclear extract) (Homo sapiens); settings: reverse ratio 0.18572; 5-methylcytosine at CpG (M.SssI); EMSA: 20 mM HEPES pH 7.9, 1 mM EDTA, 3 mM MgCl2, 10 mM beta-mercaptoethanol, 10% glycerol, 0.1% Triton X-100, 2 ug BSA, 10 ng poly(dI-dC), 30 min on ice …; scale: H/L ratio methylated/unmethylated
# [2] = system: RBP-J (U937 nuclear extract) (Homo sapiens); settings: reverse ratio 0.11974; 5-methylcytosine at CpG (M.SssI); EMSA: 20 mM HEPES pH 7.9, 1 mM EDTA, 3 mM MgCl2, 10 mM beta-mercaptoethanol, 10% glycerol, 0.1% Triton X-100, 2 ug BSA, 10 ng poly(dI-dC), 30 min on ice …; scale: H/L ratio methylated/unmethylated
# [3] = system: MBD2 (U937 nuclear extract) (Homo sapiens); settings: 5-methylcytosine at CpG (M.SssI); EMSA: 20 mM HEPES pH 7.9, 1 mM EDTA, 3 mM MgCl2, 10 mM beta-mercaptoethanol, 10% glycerol, 0.1% Triton X-100, 2 ug BSA, 10 ng poly(dI-dC), 30 min on ice …; scale: H/L ratio methylated/unmethylated
substance,measurement,setting,value
"GSTP1 CpG-island multimer, methylated (pull-down)",binding signal,[1],4.54
same,binding signal,[2],6.21
same,binding signal,[3],12.9
